Here are results for one molecule from US20210047398A1, “ASPROSIN, A FAST-INDUCED GLUCOGENIC PROTEIN HORMONE” (Baylor College of Medicine, priority 2016, published 2021).

One data set has as its system human dermal fibroblasts. Nature of the data set: Adipogenic differentiation of human dermal fibroblasts. Format: cell-based. The procedure:
Cell Culture—Human dermal fibroblasts isolated from NPS subjects or WT dermal fibroblasts from unaffected control subjects were subjected to adipogenic differentiation using standard protocols. […] Standard transfection methods with expression plasmids were used for in vitro transgenesis.
RNA and Protein Analysis—Standard RNA extraction procedures (RNeasy Mini Kit from Qiagen) were employed. Reverse transcription was carried out using the Superscript III kit (Invitrogen) using the manufacturer's protocol. For gene expression analysis, QPCR was performed using sequence-specific primers and probes from Roche (Universal Probe Library). TBP was used as an internal control for all gene-expression assays. Western blotting was performed using standard methods on plasma or cell culture media using a mouse monoclonal antibody directed against Asprosin, which was purchased from Abnova (Catalog #H00002200-M01). The mouse monoclonal antibody against fibrillin-1 was purchased from Abcam (Catalog #ab3090). […] At that time, media was concentrated using the Amicon Ultra-2 Centrifugal filter unit before proceeding with western blotting.

The next data set has as its system hepatocyte surface. Nature of the data set: Asprosin-biotin conjugate binding to the hepatocyte surface. The settings on record: 100-fold excess. Set-up: species or system mouse. The procedure:
Recombinant asprosin was conjugated with biotin using the Basic Biotinylation Sulfo-NHS Kit from Pierce. […] The cells were washed 3 times with PBS without lysis, followed by addition of streptavidin-HRP. The resulting absorbance was measured colorimetrically and the results were normalized to protein content.

For data set [1] the following is noted: bacterially-generated version (Romere et al., 2016); cited from earlier work.

B1: recombinant asprosin: 146 amino acid E. coli expressed fusion protein: 6 amino acid N-terminal His tag and 140 amino acid wild type asprosin (FBN1 2732-2871) (protein)
chain: HHHHHHSTNETDASNIEDQSETEANVSLASWDVEKTAIFAFNISHVSNKVRILELLPALTTLTNHNRYLIESGNEDGFFKINQKEGISYLHFTKKKPVAGTYSLQISSTPLYKKKELNQLEDKYDKDYLSGELGDNLKMKIQVLLH
Take B1: the “NPS associated fat differentiation and inflammogenic defects” value in the data set with human dermal fibroblasts (polypeptide added to the media of mutant cells (10 ug, 7 days), FIG. 15) is listed as “rescued”. Besides, the “adipogenic differentiation in WT cells” value with human dermal fibroblasts (recombinant asprosin added to culture media (60 nanomolar), 7 days adipogenic induction, FIG. 4G) is “promoted adipogenic differentiation”. Besides, in the data set on human dermal fibroblasts (recombinant asprosin added to culture media (60 nanomolar), 7 days, FIG. 4H), the “adipogenic defect in NPS mutant cells” value is “sufficient to rescue the adipogenic defect”. In the data set on hepatocyte surface, the “competition of asprosin-biotin binding” value is recorded as “abolished the effect”. The plasma half-life in data set [1] was about 20 min.
